Data as given in patent publication US9969998B2, “Compositions of adenosine deaminase-2 (ADA2), variants thereof and methods of using same” (Halozyme, Inc., priority 2014, dated 2018).

Experiment: Adenosine deaminase (ADA) enzymatic activity assay kit
Assay type: biochemical
Conditions: for adenosine deaminase activity mU/mL / ΔA/min, adenosine deaminase activity: protein diluted to 5 μg/mL, serially diluted 2 fold (Table 21); for % activity vs. WT: relative to rHuADA2 WT (Table 21)
Experimental: Adenosine deaminase activity was determined using an adenosine deaminase (ADA) assay kit (Genway, San Diego, Calif.; Cat. No. BQ014EALD) with minor modifications. The ADA assay is based on the enzymatic deamination of adenosine to inosine, which is converted to hypoxanthine by purine nucleoside phosphorylase (PNP). Hypoxanthine is then converted to uric acid and hydrogen peroxide by xanthine oxidase (XOD). Hydrogen peroxide is further reacted with N-Ethyl-N-(2-hydroxy-3-sulfopropyl)-3-methylaniline (EHSPT) and 4-aminoantipyrine (4-AA) in the presence of peroxidase (POD) to generate quinone dye, which is monitored in a kinetic manner.
Briefly, 5 μL samples in duplicates (at appropriate dilutions to measure steady-state, non-saturating enzyme activity) were added to 120 μL R1 reagent (provided by the manufacturer; 50 mM Tris HCL, pH 8.0, 2 mM 4-AA, 0.1 U/mL PNP, 0.2 U/mL XOD, 0.6 U/mL peroxidase) in a 96 well plate, according to manufacturer's instructions. The mixtures were incubated at 37° C. for approximately 5 min and 60 μL of R2 reagent (provided by the manufacturer; 50 mM Tris HCl, pH 4.0, 10 mM Adenosine, 2 mM EHSPT) was added to the mixtures. Then, change in absorbance (AA) at 556 nm over time at 37° C. was measured. One unit of ADA is the amount of ADA that generates one μmole of inosine from adenosine per minute at 37° C. Adenosine deaminase activity in mU/mL was calculated using the following formula: 1 mU/mL=(ΔA/min×Tv)/(Sv×ϵ×1) • where Tv=total volume (185 μL), Sv=sample volume (5 μL), ϵ=32.2×10^−3 μM^−1 cm^−1, 1=0.5 cm.
Adenosine deaminase activity of WT rHuADA2 and variants tested above were determined using the adenosine deaminase activity (ADA) assay described in Example 4. Activity was assessed on purified rHuADA2 WT and variants that were diluted to 5 μg/mL, and then serially diluted 2 fold to generate 4 measurements.
Adenosine deaminase activity of PEGylated rHuADA2 and variants was assessed using the method described in Example 4, and compared to the activity of the corresponding non-PEGylated form.
Selected candidate variants described in Table 8 above, containing an amino acid substitution in a residue that play a role in enzymatic activity, were assessed for their adenosine deaminase activity using the method described in Example 4. To perform the experiments, purified WT rHuADA2 and tested variants were prepared at 5 μg/mL concentration to normalize the amount of protein in each experiment.

| % activity vs. WT [%] | % of WT activity (purified protein at 5 μg/mL, compared to WT-ADA2) [%] | Molecule | enzymatic activity relative to WT rHuADA2 | adenosine deaminase activity mU/mL [mU/mL] | ΔA/min, adenosine deaminase activity | Adenosine deaminase activity mU/ml (purified protein at 5 μg/mL) [mU/ml] | Adenosine deaminase activity ΔA/min (purified protein at 5 μg/mL) |
| --- | --- | --- | --- | --- | --- | --- | --- |
| 125.5 | – | K455D: ADA2 variant SEQ ID NO:26 (protein, human ADA2 K452D, mature numbering) IDETRAHLLLKEKMMRLGGRLVLNTKEELANERLMTLKIAEMKEAMRTLIFPPSMHFFQAKHLIERSQVFNILRMMPKGAALHLHDIGIVTMDWLVRNVTYRPHCHICFTPRGIMQFRFAHPTPRPSEKCSKWILLEDYRKRVQNVTEFDDSLLRNFTLVTQHPEVIYTNQNVVWSKFETIFFTISGLIHYAPVFRDYVFRSMQEFYEDNVLYMEIRARLLPVYELSGEHHDEEWSVKTYQEVAQKFVETHPEFIGIKIIYSDHRSKDVAVIAESIRMAMGLRIKFPTVVAGFDLVGHEDTGHSLHDYKEALMIPAKDGVKLPYFFHAGETDWQGTSIDRNILDALMLNTTRIGHGFALSKHPAVRTYSWKKDIPIEVCPISNQVLKLVSDLRNHPVATLMATGHPMVISSDDPAMFGAKGLSYDFYEVFMGIGGMKADLRTLKQLAMNSIDYSTLLESEKNTFMEIWKKRWDKFIADVATK | improved enzymatic activity | 97.9 | 42.6 | – | – |
| 18 | – | K455A: ADA2 variant SEQ ID NO:25 (protein, human ADA2 K452A, mature numbering) IDETRAHLLLKEKMMRLGGRLVLNTKEELANERLMTLKIAEMKEAMRTLIFPPSMHFFQAKHLIERSQVFNILRMMPKGAALHLHDIGIVTMDWLVRNVTYRPHCHICFTPRGIMQFRFAHPTPRPSEKCSKWILLEDYRKRVQNVTEFDDSLLRNFTLVTQHPEVIYTNQNVVWSKFETIFFTISGLIHYAPVFRDYVFRSMQEFYEDNVLYMEIRARLLPVYELSGEHHDEEWSVKTYQEVAQKFVETHPEFIGIKIIYSDHRSKDVAVIAESIRMAMGLRIKFPTVVAGFDLVGHEDTGHSLHDYKEALMIPAKDGVKLPYFFHAGETDWQGTSIDRNILDALMLNTTRIGHGFALSKHPAVRTYSWKKDIPIEVCPISNQVLKLVSDLRNHPVATLMATGHPMVISSDDPAMFGAKGLSYDFYEVFMGIGGMKADLRTLKQLAMNSIAYSTLLESEKNTFMEIWKKRWDKFIADVATK | – | 14 | 6.1 | – | – |
| – | 65 | H267N: ADA2 variant SEQ ID NO:36 (protein, human ADA2 H264N, mature numbering) IDETRAHLLLKEKMMRLGGRLVLNTKEELANERLMTLKIAEMKEAMRTLIFPPSMHFFQAKHLIERSQVFNILRMMPKGAALHLHDIGIVTMDWLVRNVTYRPHCHICFTPRGIMQFRFAHPTPRPSEKCSKWILLEDYRKRVQNVTEFDDSLLRNFTLVTQHPEVIYTNQNVVWSKFETIFFTISGLIHYAPVFRDYVFRSMQEFYEDNVLYMEIRARLLPVYELSGEHHDEEWSVKTYQEVAQKFVETHPEFIGIKIIYSDNRSKDVAVIAESIRMAMGLRIKFPTVVAGFDLVGHEDTGHSLHDYKEALMIPAKDGVKLPYFFHAGETDWQGTSIDRNILDALMLNTTRIGHGFALSKHPAVRTYSWKKDIPIEVCPISNQVLKLVSDLRNHPVATLMATGHPMVISSDDPAMFGAKGLSYDFYEVFMGIGGMKADLRTLKQLAMNSIKYSTLLESEKNTFMEIWKKRWDKFIADVATK | – | – | – | 50.4 | 21.9 ΔA/min |
| 35.9 | – | K16A: ADA2 variant SEQ ID NO:16 (protein, human ADA2 K13A, mature numbering) IDETRAHLLLKEAMMRLGGRLVLNTKEELANERLMTLKIAEMKEAMRTLIFPPSMHFFQAKHLIERSQVFNILRMMPKGAALHLHDIGIVTMDWLVRNVTYRPHCHICFTPRGIMQFRFAHPTPRPSEKCSKWILLEDYRKRVQNVTEFDDSLLRNFTLVTQHPEVIYTNQNVVWSKFETIFFTISGLIHYAPVFRDYVFRSMQEFYEDNVLYMEIRARLLPVYELSGEHHDEEWSVKTYQEVAQKFVETHPEFIGIKIIYSDHRSKDVAVIAESIRMAMGLRIKFPTVVAGFDLVGHEDTGHSLHDYKEALMIPAKDGVKLPYFFHAGETDWQGTSIDRNILDALMLNTTRIGHGFALSKHPAVRTYSWKKDIPIEVCPISNQVLKLVSDLRNHPVATLMATGHPMVISSDDPAMFGAKGLSYDFYEVFMGIGGMKADLRTLKQLAMNSIKYSTLLESEKNTFMEIWKKRWDKFIADVATK | – | 28 | 12.2 | – | – |
| 86.3 | – | K16D: ADA2 variant SEQ ID NO:17 (protein, human ADA2 K13D, mature numbering) IDETRAHLLLKEDMMRLGGRLVLNTKEELANERLMTLKIAEMKEAMRTLIFPPSMHFFQAKHLIERSQVFNILRMMPKGAALHLHDIGIVTMDWLVRNVTYRPHCHICFTPRGIMQFRFAHPTPRPSEKCSKWILLEDYRKRVQNVTEFDDSLLRNFTLVTQHPEVIYTNQNVVWSKFETIFFTISGLIHYAPVFRDYVFRSMQEFYEDNVLYMEIRARLLPVYELSGEHHDEEWSVKTYQEVAQKFVETHPEFIGIKIIYSDHRSKDVAVIAESIRMAMGLRIKFPTVVAGFDLVGHEDTGHSLHDYKEALMIPAKDGVKLPYFFHAGETDWQGTSIDRNILDALMLNTTRIGHGFALSKHPAVRTYSWKKDIPIEVCPISNQVLKLVSDLRNHPVATLMATGHPMVISSDDPAMFGAKGLSYDFYEVFMGIGGMKADLRTLKQLAMNSIKYSTLLESEKNTFMEIWKKRWDKFIADVATK | – | 67.3 | 29.3 | – | – |
| 14.6 | – | K14A: ADA2 variant SEQ ID NO:13 (protein, human ADA2 K11A, mature numbering) IDETRAHLLLAEKMMRLGGRLVLNTKEELANERLMTLKIAEMKEAMRTLIFPPSMHFFQAKHLIERSQVFNILRMMPKGAALHLHDIGIVTMDWLVRNVTYRPHCHICFTPRGIMQFRFAHPTPRPSEKCSKWILLEDYRKRVQNVTEFDDSLLRNFTLVTQHPEVIYTNQNVVWSKFETIFFTISGLIHYAPVFRDYVFRSMQEFYEDNVLYMEIRARLLPVYELSGEHHDEEWSVKTYQEVAQKFVETHPEFIGIKIIYSDHRSKDVAVIAESIRMAMGLRIKFPTVVAGFDLVGHEDTGHSLHDYKEALMIPAKDGVKLPYFFHAGETDWQGTSIDRNILDALMLNTTRIGHGFALSKHPAVRTYSWKKDIPIEVCPISNQVLKLVSDLRNHPVATLMATGHPMVISSDDPAMFGAKGLSYDFYEVFMGIGGMKADLRTLKQLAMNSIKYSTLLESEKNTFMEIWKKRWDKFIADVATK | – | 11.4 | 4.9 | – | – |
| 20.9 | – | K16E: ADA2 variant SEQ ID NO:18 (protein, human ADA2 K13E, mature numbering) IDETRAHLLLKEEMMRLGGRLVLNTKEELANERLMTLKIAEMKEAMRTLIFPPSMHFFQAKHLIERSQVFNILRMMPKGAALHLHDIGIVTMDWLVRNVTYRPHCHICFTPRGIMQFRFAHPTPRPSEKCSKWILLEDYRKRVQNVTEFDDSLLRNFTLVTQHPEVIYTNQNVVWSKFETIFFTISGLIHYAPVFRDYVFRSMQEFYEDNVLYMEIRARLLPVYELSGEHHDEEWSVKTYQEVAQKFVETHPEFIGIKIIYSDHRSKDVAVIAESIRMAMGLRIKFPTVVAGFDLVGHEDTGHSLHDYKEALMIPAKDGVKLPYFFHAGETDWQGTSIDRNILDALMLNTTRIGHGFALSKHPAVRTYSWKKDIPIEVCPISNQVLKLVSDLRNHPVATLMATGHPMVISSDDPAMFGAKGLSYDFYEVFMGIGGMKADLRTLKQLAMNSIKYSTLLESEKNTFMEIWKKRWDKFIADVATK | – | 16.3 | 7.1 | – | – |
| 24 | – | K14D: ADA2 variant SEQ ID NO:14 (protein, human ADA2 K11D, mature numbering) IDETRAHLLLDEKMMRLGGRLVLNTKEELANERLMTLKIAEMKEAMRTLIFPPSMHFFQAKHLIERSQVFNILRMMPKGAALHLHDIGIVTMDWLVRNVTYRPHCHICFTPRGIMQFRFAHPTPRPSEKCSKWILLEDYRKRVQNVTEFDDSLLRNFTLVTQHPEVIYTNQNVVWSKFETIFFTISGLIHYAPVFRDYVFRSMQEFYEDNVLYMEIRARLLPVYELSGEHHDEEWSVKTYQEVAQKFVETHPEFIGIKIIYSDHRSKDVAVIAESIRMAMGLRIKFPTVVAGFDLVGHEDTGHSLHDYKEALMIPAKDGVKLPYFFHAGETDWQGTSIDRNILDALMLNTTRIGHGFALSKHPAVRTYSWKKDIPIEVCPISNQVLKLVSDLRNHPVATLMATGHPMVISSDDPAMFGAKGLSYDFYEVFMGIGGMKADLRTLKQLAMNSIKYSTLLESEKNTFMEIWKKRWDKFIADVATK | – | 18.7 | 8.1 | – | – |
